Laboratory results from patent publication US20240117326.

T1: NifD-NifK proteins from K. oxytoca (expressed from MIT2.1 in E. coli JM109)
T1 chain 1: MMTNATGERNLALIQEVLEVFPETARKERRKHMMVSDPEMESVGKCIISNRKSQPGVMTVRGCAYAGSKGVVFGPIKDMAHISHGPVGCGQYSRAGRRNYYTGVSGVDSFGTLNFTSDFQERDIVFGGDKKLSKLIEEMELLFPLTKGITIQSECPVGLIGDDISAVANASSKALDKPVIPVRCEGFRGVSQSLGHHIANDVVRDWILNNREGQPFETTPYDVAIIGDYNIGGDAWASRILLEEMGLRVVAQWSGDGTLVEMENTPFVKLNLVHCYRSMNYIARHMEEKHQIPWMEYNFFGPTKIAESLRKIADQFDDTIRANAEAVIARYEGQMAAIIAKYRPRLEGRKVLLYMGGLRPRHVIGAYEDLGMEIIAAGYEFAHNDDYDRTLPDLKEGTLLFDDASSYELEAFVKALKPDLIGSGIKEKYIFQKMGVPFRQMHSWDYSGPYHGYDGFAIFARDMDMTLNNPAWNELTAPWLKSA
T1 chain 2: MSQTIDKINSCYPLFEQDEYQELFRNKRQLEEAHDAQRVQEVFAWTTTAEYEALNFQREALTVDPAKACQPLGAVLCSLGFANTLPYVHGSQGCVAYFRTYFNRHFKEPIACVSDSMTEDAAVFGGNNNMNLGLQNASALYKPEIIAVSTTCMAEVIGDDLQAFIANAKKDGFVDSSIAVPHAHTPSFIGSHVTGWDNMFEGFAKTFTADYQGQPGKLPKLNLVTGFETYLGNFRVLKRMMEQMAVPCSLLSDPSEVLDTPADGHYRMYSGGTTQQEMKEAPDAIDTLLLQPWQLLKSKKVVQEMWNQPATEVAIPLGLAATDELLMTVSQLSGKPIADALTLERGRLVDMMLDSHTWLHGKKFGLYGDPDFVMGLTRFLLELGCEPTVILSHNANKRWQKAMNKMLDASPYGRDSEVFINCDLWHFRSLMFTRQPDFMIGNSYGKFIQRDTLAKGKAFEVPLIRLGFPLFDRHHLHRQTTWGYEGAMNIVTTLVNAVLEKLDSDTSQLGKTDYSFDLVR

B1: Carboxydothermus pertinax NifH (Genbank Accession No. WP_075859892) (protein)
chain: MTRKIAIYGKGGIGKSTTQQNTAAALAYFYGKKVLIHGCDPKADCTRLILGGKPQETVMDTMRELGEDAVTIDRVVKTGFCGIKCVESGGPEPGVGCAGRGVITAISLMEELGAYTPDLDFIFFDVLGDVVCGGFAMPVREGKAQEIYIVASGEMMALYAANNICRGMVKYAEQSGVRLGGIICNSRNVDGERELMEEFCSKIGTQMIHFIPRDNIVQKAEFNRQTVTQFDPNCNQAQEYRELARKIIENDMFVIPKPMTMDEMENLVIKYGLLE
B2: M laminosus NifH (Genbank Accession No. Q47917) (protein)
chain: MTENIRQIAFYGKGGIGKSTTSQNTLAAMAEMGQRIMIVGCDPKADSTRLMLHSKAQTTVLHLAAERGAVEDLELEEVMLTGFRGVKCVESGGPEPGVGCAGRGIITAINFLEENGAYQDLDFVSYDVLGDVVCGGFAMPIREGKAQEIYIVTSGEMMAMYAANNIARGILKYAHSGGVRLGGLICNSRKVDREAELIENLAERLNTQMIHFVPRDNIVQHAELRRMTVNEYAPDSNQSQEYRALAKKIINNTKLTIPTPMEMDELEALLIEYGILDDDTKHADIIGKPAEASAK
B3: C. tepidum NifH (Genbank Accession No. WP_010933198) (protein)
chain: MRKVAIYGKGGIGKSTTTQNTVAGLAEAGKKVMVVGCDPKADSTRLLLGGLQQKTVLDTLREEGEEVELEDIIKEGYRNTRCTESGGPEPGVGCAGRGIITSVNLLEQLGAYDDEWELDYVFYDVLGDVVCGGFAMPIRDGKAEEIYIVCSGEMMAMYAANNICKGILKYADAGGVRLGGLICNSRKVDNEREMIEELARRLGTQMIHFVPRDNFVQRAEINRKTVIDFDPTHPQADEYRALAKKIDENKMFVIPKPLEIDELESLLIEFGIAN
B4: M thermautotrophicus NifH (Genbank Accession No. AAB86034) (protein)
chain: MVRKIAIYGKGGIGKSTTQQNTAAAMSYFHGKNVMIHGCDPKADSTRLILGGKMQTTMMDTLRELGEVACTPDKVIETGFGGIKCVESGGPEPGVGCAGRGVITAITLMERHGVYEKDLDFVFFDVLGDVVCGGFAMPVRDGKAEEIYIVASGEMMALYAANNICKGMVKYARQSGVRLGGIICNSRNVDGEKELLEEFCERIGTQMIHFVPRDNIVQKAEFNKKSVIEFDPECNQSQEYRELARKIIENKDFVIPEPMTMDEMEELVVKYGVMD
B5: Geobacter sp. NifH (Genbank Accession No. WP_015837436) (protein)
chain: MRQIAIYGKGGIGKSTTTQNTVAGLASIGKKVMIVGCDPKADSTRLILHAKAQSTVMDLVRELGTVEDLELEDVMKVGYGDVKCVESGGPEPGVGCAGRGVITAINFLEENGAYTPDLDFVFYDVLGDVVCGGFAMPIREGKAEEIYIVCSGEMMAMYAANNIAKGILKYATSGKVRLAGLICNARKTDKEYELIDALAKKLGTQMIHFVPRDNQVQRAELRRMTVIEYSPEHPQAQEYRTLAQKIADNKMLVVPTPLEMEELEDLLMEFGIMEAEDESIVGVAEAAAV
B6: H. modesticaldum NifH (Genbank Accession No. WP_012282218) (protein)
chain: MRQIAIYGKGGIGKSTTTQNTVSALAEMGKKVMIVGCDPKADSTRLILHSKAQATVMDLAREKGTVEDLELSDVLLTGFADIRCAESGGPEPGVGCAGRGVITAINFLEENGAYTPDLDYVFYDVLGDVVCGGFAMPIRENKAQEIYIVTSGEMMAMYAANNIARGILKYASSGKVRLGGLICNSRKVDKEYELIDELATRLGTQMIHFLPRDNQVQRAELRRMTVIEYSPDHPQADEYRALAKKIDENKKLVIPTPLTMDELEDLLIQYGILEDEETAAAKLG
B7: M. infernus NifH (Genbank Accession No. WP_013099459) (protein)
chain: MSFDEIAPNAKKVAIYGKGGIGKSTTTQNTAAALAYYYKLKGMIHGCDPKADSTRMILHGKPQETVMDVLREEGEEGVTLEKVRKVGFCGIYCVESGGPEPGVGCAGRGVITAVNLMKELGGYPDDLDFLFFDVLGDVVCGGFAMPLRDGLAKEIYIVSSGEMMALYAANNIAKGILKYAEQSGVRLGGIICNSRNVDGERELMEEFCDKLGTKLIHFIPRDNIVQKAEFNKMTVVEFAPDHPQALEYKKLGKKIMDNDELVIPTPLSMDELEKLVEKYGLYDK

Target: T1, NifD-NifK proteins from K. oxytoca …

| Protein | acetylene reduction assay (ethylene production) in E. coli JM109 with modified MIT2.1 |
| --- | --- |
| B1 | none of the JM109 strains carrying the modified MIT2.1 plasmids with the NifH variants reduced acetylene, instead showing the same background level of ethylene production as JM109 carrying the negative control plasmid pB-ori |
| B2 | none of the JM109 strains carrying the modified MIT2.1 plasmids with the NifH variants reduced acetylene, instead showing the same background level of ethylene production as JM109 carrying the negative control plasmid pB-ori |
| B3 | none of the JM109 strains carrying the modified MIT2.1 plasmids with the NifH variants reduced acetylene, instead showing the same background level of ethylene production as JM109 carrying the negative control plasmid pB-ori |
| B4 | none of the JM109 strains carrying the modified MIT2.1 plasmids with the NifH variants reduced acetylene, instead showing the same background level of ethylene production as JM109 carrying the negative control plasmid pB-ori |
| B5 | none of the JM109 strains carrying the modified MIT2.1 plasmids with the NifH variants reduced acetylene, instead showing the same background level of ethylene production as JM109 carrying the negative control plasmid pB-ori |
| B6 | none of the JM109 strains carrying the modified MIT2.1 plasmids with the NifH variants reduced acetylene, instead showing the same background level of ethylene production as JM109 carrying the negative control plasmid pB-ori |
| B7 | none of the JM109 strains carrying the modified MIT2.1 plasmids with the NifH variants reduced acetylene, instead showing the same background level of ethylene production as JM109 carrying the negative control plasmid pB-ori |
